Test results taken from the supplement of paper PMC10567573.

B1: PCDHGA10 (parent)
chain: FGIEIEVTDINDNAPKFQAENLDV
B2: STEAP1 (parent)
chain: WMLTRKQFGLLSFFFAVLHAIYSL

Variants of: B1
Test: protein stability index of a GFP-peptide fusion (GPS, HEK-293T) (PSI 1-6); higher = more stable
Conditions: c terminus: a fixed tail appended
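Further: lentivirally expressed fusions sorted by FACS into six bins by GFP to DsRed ratio, PSI derived from sequencing read proportions per bin multiplied by bin number.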

Variant	protein stability index
FGIEIEYTDINDNAPKFQAENLDV [V7Y]	2.93
FGIEIEFTDINDNAPKFQAENLDV [V7F]	2.25
FGIEIEMTDINDNAPKFQAENLDV [V7M]	3.18
FGIEIEHTDINDNAPKFQAENLDV [V7H]	4.74
FGIEIEWTDINDNAPKFQAENLDV [V7W]	1.78
FGIEIENTDINDNAPKFQAENLDV [V7N]	4.46
FGIEIEQTDINDNAPKFQAENLDV [V7Q]	4.8
FGIEIEKTDINDNAPKFQAENLDV [V7K]	4.21
FGIEIEGTDINDNAPKFQAENLDV [V7G]	4.3
FGIEIEATDINDNAPKFQAENLDV [V7A]	4.33
FGIEIEDTDINDNAPKFQAENLDV [V7D]	5.46
FGIEIESTDINDNAPKFQAENLDV [V7S]	4.63
FGIEIEETDINDNAPKFQAENLDV [V7E]	4.74
FGIEIETTDINDNAPKFQAENLDV [V7T]	4.45
FGIEIERTDINDNAPKFQAENLDV [V7R]	4.14
FGIEIELTDINDNAPKFQAENLDV [V7L]	2.45
FGIEIEITDINDNAPKFQAENLDV [V7I]	2.29
FGIEIEPTDINDNAPKFQAENLDV [V7P]	4.72
FGIEIECTDINDNAPKFQAENLDV [V7C]	3.75
FGIEIEVFDINDNAPKFQAENLDV [T8F]	1.68

Variant	protein stability index
FGIEIEVLDINDNAPKFQAENLDV [T8L]	1.89
FGIEIEVRDINDNAPKFQAENLDV [T8R]	2.32
FGIEIEVIDINDNAPKFQAENLDV [T8I]	1.76
FGIEIEVEDINDNAPKFQAENLDV [T8E]	3.32
FGIEIEVYDINDNAPKFQAENLDV [T8Y]	1.17
FGIEIEVSDINDNAPKFQAENLDV [T8S]	2.77
FGIEIEVVDINDNAPKFQAENLDV [T8V]	2.08
FGIEIEVPDINDNAPKFQAENLDV [T8P]	3.75
FGIEIEVKDINDNAPKFQAENLDV [T8K]	3.33
FGIEIEVDDINDNAPKFQAENLDV [T8D]	3.79
FGIEIEVMDINDNAPKFQAENLDV [T8M]	2.19
FGIEIEVWDINDNAPKFQAENLDV [T8W]	2.27
FGIEIEVADINDNAPKFQAENLDV [T8A]	2.88
FGIEIEVQDINDNAPKFQAENLDV [T8Q]	2.78
FGIEIEVGDINDNAPKFQAENLDV [T8G]	3.27
FGIEIEVCDINDNAPKFQAENLDV [T8C]	2.48
FGIEIEVHDINDNAPKFQAENLDV [T8H]	2.78
FGIEIEVNDINDNAPKFQAENLDV [T8N]	3.81
FGIEHEVTDINDNAPKFQAENLDV [I5H]	4.91
FGIEEEVTDINDNAPKFQAENLDV [I5E]	5.17

Variant	protein stability index
FGIEFEVTDINDNAPKFQAENLDV [I5F]	3.49
FGIELEVTDINDNAPKFQAENLDV [I5L]	3.94
FGIEPEVTDINDNAPKFQAENLDV [I5P]	5.13
FGIEREVTDINDNAPKFQAENLDV [I5R]	4.79
FGIEAEVTDINDNAPKFQAENLDV [I5A]	4.42
FGIECEVTDINDNAPKFQAENLDV [I5C]	4.28
FGIEGEVTDINDNAPKFQAENLDV [I5G]	5.02
FGIEWEVTDINDNAPKFQAENLDV [I5W]	3.05
FGIETEVTDINDNAPKFQAENLDV [I5T]	5.08
FGIEVEVTDINDNAPKFQAENLDV [I5V]	3.48
FGIEKEVTDINDNAPKFQAENLDV [I5K]	4.92
FGIEMEVTDINDNAPKFQAENLDV [I5M]	3.86
FGIEDEVTDINDNAPKFQAENLDV [I5D]	4.58
FGIESEVTDINDNAPKFQAENLDV [I5S]	5.39
FGIEQEVTDINDNAPKFQAENLDV [I5Q]	4.71
FGIENEVTDINDNAPKFQAENLDV [I5N]	5.05
FGIEYEVTDINDNAPKFQAENLDV [I5Y]	3.85
FGIEIEVTEINDNAPKFQAENLDV [D9E]	2.69
FGIEIEVTAINDNAPKFQAENLDV [D9A]	1.98
FGIEIEVTCINDNAPKFQAENLDV [D9C]	1.95

Variants of: B2
Test: as above
Conditions: c terminus: a fixed tail appended

Variant	protein stability index
WMLTRKQFGLLSFFFAVLHAIYYL [S23Y]	2.37
WMLTRKQFGLLSFFFAVLHAIYQL [S23Q]	1.39
WMLTRKQFGLLSFFFAVLHAIYWL [S23W]	2
WMLTRKQFGLLSFFFAVLHAIYHL [S23H]	1.71
WMLTRKQFGLLSFFFAVLHAIYML [S23M]	2.3
WMLTRKQFGLLSFFFAVLHAIYTL [S23T]	1.55
WMLTRKQFGLLSFFFAVLHAIYNL [S23N]	2.21
WMLTRKQFGLLSFFFAVLHAIYFL [S23F]	1.79
WMLTRKQFGLLSFFFAVLHAIYVL [S23V]	1.94
WMLTRKQFGLLSFFFAVLHAIYIL [S23I]	1.92
WMLTRKQFGLLSFFFAVLHAIYGL [S23G]	1.48
WMLTRKQFGLLSFFFAVLHAIYLL [S23L]	1.27
WMLTRKQFGLLSFFFAVLHAIYPL [S23P]	1.89
WMLTRKQFGLLSFFFAVLHAIYKL [S23K]	2.01
WMLTRKQFGLLSFFFAVLHAIYRL [S23R]	2.43
WMLTRKQFGLLSFFFAVLHAIYSW [L24W]	2.13
WMLTRKQFGLLSFFFAVLHAIYSR [L24R]	1.84

Variant	protein stability index
WMLTRKQFGLLSFFFAVLHAIYSF [L24F]	1.46
WMLTRKQFGLLSFFFAVLHAIYSM [L24M]	1.97
WMLTRKQFGLLSFFFAVLHAIYSG [L24G]	2.74
WMLTRKQFGLLSFFFAVLHAIYSI [L24I]	1.86
WMLTRKQFGLLSFFFAVLHAIYSA [L24A]	1.91
WMLTRKQFGLLSFFFAVLHAIYSD [L24D]	2.7
WMLTRKQFGLLSFFFAVLHAIYSK [L24K]	3.44
WMLTRKQFGLLSFFFAVLHAIYSY [L24Y]	2
WMLTRKQFGLLSFFFAVLHAIYSV [L24V]	2.27
WMLTRKQFGLLSFFFAVLHAIYST [L24T]	2.26
WMLTRKQFGLLSFFFAVLHAIYSN [L24N]	1.98
WMLTRKQFGLLSFFFAVLHAIYSE [L24E]	1.4
WMLTRKQFGLLSFFFAVLHAIYSP [L24P]	2.08
WMLTRKQFGLLSFFFAVLHAIYSH [L24H]	1.83
WMLTRKQFGLLSFFFAVLHAIYSQ [L24Q]	1.94
WMLTRKQFGLLSFFFAVLHAIYSS [L24S]	2.14
WMLTRKQFGLLSFFFAVLHAIYSC [L24C]	2
